Experimental findings from patent US20250304714A1 (Regeneron, published 2025) are described below.

The target in assay [1] is T1, human prostate-specific membrane antigen (PSMA) (human, UniProt Q04609 1-750).
T1 construct: whole, on cells; also called hPSMA; FOLH1
In words: flow cytometry (FACS) on B16F10.9/PSMA cells. How it is done: (§1) Briefly, 2×10⁵ cells/well of human CD3-expressing Jurkat, cynomolgus T, or human PSMA-specific expressing cells were incubated with a serial dilution of bispecific antibodies for 30 min at 4° C. After incubation, cells were washed and a goat F(ab′)₂ anti-human Fcγ PE labeled secondary (Jackson Immunolabs) was added to the cells for an additional 30 min. Next, cells were washed, re-suspended in cold PBS+1% BSA and analyzed via flow cytometry on a BD FACS Canto II.
(§2) For FACS analysis, cells were gated by forward scatter height vs. forward scatter area for single events selection, followed by side and forward scatters. The EC₅₀ for cell binding titration was determined using Prism software. Values were calculated using 4-parameter non-linear regression analysis.

The target of assay [2] is T2, human CD3 (human, UniProt P07766 23-207; P04234 22-171; P09693 23-182). In words: cell-based or functional assay.
T2 sequence (P07766 23-207 limits assumed, chain 1 of 3): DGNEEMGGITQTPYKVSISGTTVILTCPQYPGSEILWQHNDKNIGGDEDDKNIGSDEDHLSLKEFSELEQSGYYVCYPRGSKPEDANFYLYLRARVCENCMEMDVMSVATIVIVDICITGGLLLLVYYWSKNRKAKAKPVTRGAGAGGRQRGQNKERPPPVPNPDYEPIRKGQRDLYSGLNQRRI
T2 sequence (P04234 22-171 limits assumed, chain 2 of 3): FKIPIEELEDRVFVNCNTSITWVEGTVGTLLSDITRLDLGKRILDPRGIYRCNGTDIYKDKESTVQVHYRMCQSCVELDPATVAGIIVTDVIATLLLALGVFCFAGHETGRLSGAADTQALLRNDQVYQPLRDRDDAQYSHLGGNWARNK
T2 sequence (P09693 23-182 limits assumed, chain 3 of 3): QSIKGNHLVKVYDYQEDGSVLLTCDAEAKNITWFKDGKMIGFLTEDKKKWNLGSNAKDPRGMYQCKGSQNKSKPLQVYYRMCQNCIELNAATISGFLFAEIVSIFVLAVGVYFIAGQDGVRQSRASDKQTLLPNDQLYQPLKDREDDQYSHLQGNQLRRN
Assay [3] addresses T1, human prostate-specific membrane …. The assay is described as follows: cell-based or functional assay.
In assay [4] the target is T2, human CD3. In words: flow cytometry (FACS) on Jurkat cells. The protocol:
as §1, §2
A general note: A flow cytometer gives signals particle by particle.

The target in assay [5] is T3, soluble heterodimeric hCD3 mFc protein (human).
T3 construct: Heterodimer of two different CD3 chains fused to mFc; the names of the subunits seem to have been lost in the printed text ('hCD3 mFc'); also called soluble heterodimeric CD3 protein; Soluble Human CD3
T3 sequence (P07766 23-126, chain 1 of 2): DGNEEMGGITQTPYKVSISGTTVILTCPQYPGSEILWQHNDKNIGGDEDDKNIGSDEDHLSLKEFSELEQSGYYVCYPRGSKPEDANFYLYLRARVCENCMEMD
T3 sequence (P04234 22-105, chain 2 of 2, further chain): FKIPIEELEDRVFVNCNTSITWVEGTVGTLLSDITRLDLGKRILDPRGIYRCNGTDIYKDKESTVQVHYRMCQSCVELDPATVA
In words: SPR at 37° C., antigen-capture format, MASS-1. The protocol: Measurements were conducted on a Sierra Sensors MASS-1 instrument.
In the antigen-capture format, the MASS-1 high-density amine sensor surface was derivatized with a goat anti-mouse IgG2a polyclonal antibody (Southern Biotech). Soluble heterodimeric CD3 protein was captured and the respective antibodies were injected over the captured antigen.
Kinetic association (kₐ) and dissociation (kd) rate constants were determined by processing and fitting the data to a 1:1 binding model using MASS-1 AnalyserR2 curve fitting software. Binding dissociation equilibrium constants (KD) and dissociative half-lives (t_{1/2}) were calculated from the kinetic rate constants as: KD (M)=kd/kₐ; and t_{1/2} (min) (In2/(60*kd).

For the next assay, the target named is T4, cynomolgus CD3 (cynomolgus).
T4 construct: whole, on cells; also called CD3 on cynomolgus T cells; Cyno T-cells
T4 sequence (Q95LI5 22-198, chain 1 of 3): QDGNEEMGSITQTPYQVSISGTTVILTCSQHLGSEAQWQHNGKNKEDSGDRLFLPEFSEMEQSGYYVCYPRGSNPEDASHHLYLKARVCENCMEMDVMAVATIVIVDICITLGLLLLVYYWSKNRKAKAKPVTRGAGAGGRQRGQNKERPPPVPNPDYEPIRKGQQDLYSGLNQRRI
T4 sequence (Q95LI8 22-171, chain 2 of 3, further chain): as the sequence (P04234 22-171 limits assumed, chain 2 of 3) above, with I5V, N15K, I20V, S32T, D33N, I34N, T64A, S74N, V83L, H141R counted along it
T4 sequence (Q95LI7 23-181, chain 3 of 3, further chain): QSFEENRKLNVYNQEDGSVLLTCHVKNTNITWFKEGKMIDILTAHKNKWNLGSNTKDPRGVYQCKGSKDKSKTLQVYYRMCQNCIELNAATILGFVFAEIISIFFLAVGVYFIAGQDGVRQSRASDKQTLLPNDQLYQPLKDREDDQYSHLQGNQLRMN
In words: flow cytometry (FACS) on cynomolgus T cells. How it is done:
as §1, §2

Broadly, the EC50 is the concentration needed to bring the measured effect to its halfway point. The low end stands for an effect from little substance, the high end for a need for much substance. What is called Kd is the constant that tells how readily two partners part at equilibrium. Read a low Kd as tighter binding. In general, koff refers to a measure of how fast the partners let go of each other. One may read the kon as a measure of how fast the partners come together. Low readings indicate slower complex formation, high ones faster complex formation.

T1 sequence (Q04609 whole entry): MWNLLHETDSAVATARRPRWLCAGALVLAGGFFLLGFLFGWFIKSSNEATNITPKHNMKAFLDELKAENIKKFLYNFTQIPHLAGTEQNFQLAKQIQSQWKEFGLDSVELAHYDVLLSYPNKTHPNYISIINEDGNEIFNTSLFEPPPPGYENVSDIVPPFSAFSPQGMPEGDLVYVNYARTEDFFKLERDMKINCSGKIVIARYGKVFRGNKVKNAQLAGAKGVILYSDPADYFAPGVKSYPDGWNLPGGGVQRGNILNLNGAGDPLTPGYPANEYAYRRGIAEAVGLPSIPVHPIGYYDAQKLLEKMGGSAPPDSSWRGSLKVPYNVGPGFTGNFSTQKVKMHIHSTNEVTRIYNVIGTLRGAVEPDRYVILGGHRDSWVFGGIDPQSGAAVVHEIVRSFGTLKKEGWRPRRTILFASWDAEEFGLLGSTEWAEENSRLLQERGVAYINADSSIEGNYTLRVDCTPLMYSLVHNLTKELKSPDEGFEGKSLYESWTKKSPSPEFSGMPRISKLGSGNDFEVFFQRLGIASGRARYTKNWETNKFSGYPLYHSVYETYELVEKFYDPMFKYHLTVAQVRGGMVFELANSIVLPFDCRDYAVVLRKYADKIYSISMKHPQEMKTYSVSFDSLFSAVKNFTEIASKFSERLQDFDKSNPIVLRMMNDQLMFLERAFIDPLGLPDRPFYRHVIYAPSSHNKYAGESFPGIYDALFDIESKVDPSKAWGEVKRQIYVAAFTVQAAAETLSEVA

B1: PSMA/CD3-001 (bispecific antibody, V domains shown)
VH 1: QVQLVESGGGVVQPGRSLRLSCAASGFTFSSYGMHWVRQAPGKGLEWVAVISYAGNNKYYADSVKGRFTVSRDNSKKTLYLQMNSLRSEDTAVYYCAKDSYYDFLTDPDVLDIWGQGTMVTVSS
VH 2: EVQLVESGGGLVQPGRSLRLSCAASGFTFDDYSMHWVRQAPGKGLEWVSGISWNSGSIGYADSVKGRFTISRDNAKNSLYLQMNSLRAEDTALYYCAKDGSGYGKFYYYGMDVWGQGTTVTVSS
VL: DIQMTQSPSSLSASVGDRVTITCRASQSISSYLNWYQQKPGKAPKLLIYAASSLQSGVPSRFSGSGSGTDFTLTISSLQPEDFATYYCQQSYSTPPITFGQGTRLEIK
notes: also called anti-PSMA x anti-CD3 bispecific antibody with anti-CD3 arm CD3-VH-G5
Turning to B1, in assay [1], the EC50 stood at 1.31 nM. Further, the “T cell activation EC50 [M] (percent CD69+ of CD2+ T cells)” value with human CD3 [2] turned out to be 1.34e-11 M. Also, in assay [3], the “22RV1 Cell depletion EC50” value was found to be 0.00631 nM, the “C4-2 Cell depletion EC50” value is 0.0215 nM and the “TrampC2.PSMA Cell depletion EC50” value was 0.0115 nM. The same molecule registered an EC50 with human CD3 [4] of roughly 1000 nM.

B2: PSMA/CD3-002 (bispecific antibody, V domains shown)
VH 1: QVQLVESGGGVVQPGRSLRLSCAASGFTFSSYGMHWVRQAPGKGLEWVAVISYAGNNKYYADSVKGRFTVSRDNSKKTLYLQMNSLRSEDTAVYYCAKDSYYDFLTDPDVLDIWGQGTMVTVSS
VH 2: EVQLVESGGGLVQPGRSLRLSCAASGFTFDDYSMHWVRQAPGKGLEWVSGISWNSGSIGYADSVKGRFTISRDNAKNSLYLQMNSLRAEDTALYYCAKYGSGYGKFYYYGMDVWGQGTTVTVSS
VL: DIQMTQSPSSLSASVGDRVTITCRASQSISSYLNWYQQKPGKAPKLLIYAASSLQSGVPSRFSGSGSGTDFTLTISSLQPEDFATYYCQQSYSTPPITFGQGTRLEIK
notes: also called REGN4336; anti-PSMA x anti-CD3 bispecific antibody with anti-CD3 arm CD3-VH-G20
Molecule B2 came in with an EC50 in assay [1] of 2.09 nM. In assay [5], this molecule yielded a Kd of 334 nM, a T1/2 of 2 min, a koff of 0.00577 s⁻¹ and a kon of 17300 M⁻¹ s⁻¹. The molecule further returned an EC50 in the assay with cynomolgus CD3 of 6140 nM. Also, the “T cell activation EC50 [M] (percent CD69+ of CD2+ T cells)” value with human CD3 [2] was determined as 6.11e-12 M. Besides, in assay [3], the “22RV1 Cell depletion EC50” value was 0.00832 nM and the “C4-2 Cell depletion EC50” value is 0.0139 nM. It took 210 nM to reach a half-maximal effect with human CD3 [4] (EC50).
